In article PMC7904446 (Cell Host & Microbe, 2021):
Numbering of substitutions follows the chain as printed.

B1: ZDY28 Fab (Fab, V domains shown)
VH: EVQLVQSGGGVVQPGRSLRLSCAASGFTFSSYGMHWVRQAPGKGLEWVAVISYDGSNKYYADSVKGRFTISRDNSKNTLYLQMNSLRAEDTAVYYCASRSTVVPAAIFAFDIWGQGTMVTVSS
VL: not shown
B2: ZDY49 Fab (Fab, V domains shown)
VH: B1 VH with Q6E
VL: not shown
B3: ZDY95 Fab (Fab, V domains shown)
VH: B1 VH
VL: not shown
B4: ZDY20 Fab (Fab, V domains shown)
VH: EVQLVETGGGLIQPGGSLRLSCAASGITVSSNYMSWVRQAPGKGLEWVSVIYSGGSTYYADSVKGRFTISRDNSKNTLYLQMNSLRAEDTAVYYCAREGLGDGYNAIAGLGFDLWGRGTLVTVSS
VL: DIVMTQSPSSLSASVGDSVTITCQASQDINNYLNWYQQKPGRAPELLINDASNLEAGVPSRFSGSGSGTDFTLTISSLQTEDFATYYCQQYGSLPYTFGQGTKLDIR

biological target: recombinant SARS-CoV-2 spike protein receptor binding domain (RBD) (SARS-CoV-2, UniProt P0DTC2, biotin (the listed product is biotinylated)); experiment: SPR

First: B1
Second: B2
The Kd of the first is 2.2-fold lower: 19.2 nM for the first, 42.3 nM for the second.

First: B3
Second: B4
The Kd of the first is 2.9-fold lower: 26.2 nM for the first, 74.9 nM for the second. The first binds more tightly here.
